US20210388087A1 (Chugai, published 2021)

Target: T1, Human CD137 ECD (human)
T1 construct: also called 4-1BB
Experiment: single mutant vs template dBBDu183H

T1 sequence (chain, as listed by the source limits assumed): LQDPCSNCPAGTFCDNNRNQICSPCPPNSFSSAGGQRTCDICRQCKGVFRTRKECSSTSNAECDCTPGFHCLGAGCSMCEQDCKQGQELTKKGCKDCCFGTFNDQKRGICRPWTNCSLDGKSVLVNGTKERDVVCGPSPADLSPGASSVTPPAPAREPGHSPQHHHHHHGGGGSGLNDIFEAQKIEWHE

fold change of affinity | Binder
0.5 fold | H183/L072 VH T28P (antibody, name in Kabat numbering, V domains shown) VH: QVQLVESGGGLVQPGRSLRLSCAASGFPFSNAWMHWVRQAPGKGLEWVAQIKDKGNAYAAYYAPSVKGRFTISRDDSKNSIYLQMNSLKTEDTAVYYCHYVHYASASTVLPAFGVDAWGQGTTVTVSS VL: DIVMTQSPLSLPVTPGEPASISCQASQELVHMNRNTYLHWYQQKPGQAPRLLIYKVSNRFPGVPDRFSGSGSGTDFTLKISRVEAEDVGVYYCAQGTSVPFTFGQGTKLEIK
0.5 fold | H183/L072 VH T28Q (antibody, name in Kabat numbering, V domains shown) VH: QVQLVESGGGLVQPGRSLRLSCAASGFQFSNAWMHWVRQAPGKGLEWVAQIKDKGNAYAAYYAPSVKGRFTISRDDSKNSIYLQMNSLKTEDTAVYYCHYVHYASASTVLPAFGVDAWGQGTTVTVSS VL: DIVMTQSPLSLPVTPGEPASISCQASQELVHMNRNTYLHWYQQKPGQAPRLLIYKVSNRFPGVPDRFSGSGSGTDFTLKISRVEAEDVGVYYCAQGTSVPFTFGQGTKLEIK
1.5 fold | H183/L072 VH T28R (antibody, name in Kabat numbering, V domains shown) VH: QVQLVESGGGLVQPGRSLRLSCAASGFRFSNAWMHWVRQAPGKGLEWVAQIKDKGNAYAAYYAPSVKGRFTISRDDSKNSIYLQMNSLKTEDTAVYYCHYVHYASASTVLPAFGVDAWGQGTTVTVSS VL: DIVMTQSPLSLPVTPGEPASISCQASQELVHMNRNTYLHWYQQKPGQAPRLLIYKVSNRFPGVPDRFSGSGSGTDFTLKISRVEAEDVGVYYCAQGTSVPFTFGQGTKLEIK
1.2 fold | H183/L072 VH T28V (antibody, name in Kabat numbering, V domains shown) VH: QVQLVESGGGLVQPGRSLRLSCAASGFVFSNAWMHWVRQAPGKGLEWVAQIKDKGNAYAAYYAPSVKGRFTISRDDSKNSIYLQMNSLKTEDTAVYYCHYVHYASASTVLPAFGVDAWGQGTTVTVSS VL: DIVMTQSPLSLPVTPGEPASISCQASQELVHMNRNTYLHWYQQKPGQAPRLLIYKVSNRFPGVPDRFSGSGSGTDFTLKISRVEAEDVGVYYCAQGTSVPFTFGQGTKLEIK
1.1 fold | H183/L072 VH T28K (antibody, name in Kabat numbering, V domains shown) VH: QVQLVESGGGLVQPGRSLRLSCAASGFKFSNAWMHWVRQAPGKGLEWVAQIKDKGNAYAAYYAPSVKGRFTISRDDSKNSIYLQMNSLKTEDTAVYYCHYVHYASASTVLPAFGVDAWGQGTTVTVSS VL: DIVMTQSPLSLPVTPGEPASISCQASQELVHMNRNTYLHWYQQKPGQAPRLLIYKVSNRFPGVPDRFSGSGSGTDFTLKISRVEAEDVGVYYCAQGTSVPFTFGQGTKLEIK
0.7 fold | H183/L072 VH T28M (antibody, name in Kabat numbering, V domains shown) VH: QVQLVESGGGLVQPGRSLRLSCAASGFMFSNAWMHWVRQAPGKGLEWVAQIKDKGNAYAAYYAPSVKGRFTISRDDSKNSIYLQMNSLKTEDTAVYYCHYVHYASASTVLPAFGVDAWGQGTTVTVSS VL: DIVMTQSPLSLPVTPGEPASISCQASQELVHMNRNTYLHWYQQKPGQAPRLLIYKVSNRFPGVPDRFSGSGSGTDFTLKISRVEAEDVGVYYCAQGTSVPFTFGQGTKLEIK

More lines, now with the values behind:

Binder | fold change of affinity
H183/L072 VH S62M (antibody, name in Kabat numbering, V domains shown) VH: QVQLVESGGGLVQPGRSLRLSCAASGFTFSNAWMHWVRQAPGKGLEWVAQIKDKGNAYAAYYAPMVKGRFTISRDDSKNSIYLQMNSLKTEDTAVYYCHYVHYASASTVLPAFGVDAWGQGTTVTVSS VL: DIVMTQSPLSLPVTPGEPASISCQASQELVHMNRNTYLHWYQQKPGQAPRLLIYKVSNRFPGVPDRFSGSGSGTDFTLKISRVEAEDVGVYYCAQGTSVPFTFGQGTKLEIK | 0.8 fold
H183/L072 VH T28I (antibody, name in Kabat numbering, V domains shown) VH: QVQLVESGGGLVQPGRSLRLSCAASGFIFSNAWMHWVRQAPGKGLEWVAQIKDKGNAYAAYYAPSVKGRFTISRDDSKNSIYLQMNSLKTEDTAVYYCHYVHYASASTVLPAFGVDAWGQGTTVTVSS VL: DIVMTQSPLSLPVTPGEPASISCQASQELVHMNRNTYLHWYQQKPGQAPRLLIYKVSNRFPGVPDRFSGSGSGTDFTLKISRVEAEDVGVYYCAQGTSVPFTFGQGTKLEIK | 0.8 fold
H183/L072 VH S99M (antibody, name in Kabat numbering, V domains shown) VH: QVQLVESGGGLVQPGRSLRLSCAASGFTFSNAWMHWVRQAPGKGLEWVAQIKDKGNAYAAYYAPSVKGRFTISRDDSKNSIYLQMNSLKTEDTAVYYCHYVHYAMASTVLPAFGVDAWGQGTTVTVSS VL: DIVMTQSPLSLPVTPGEPASISCQASQELVHMNRNTYLHWYQQKPGQAPRLLIYKVSNRFPGVPDRFSGSGSGTDFTLKISRVEAEDVGVYYCAQGTSVPFTFGQGTKLEIK | 0.8 fold
H183/L072 VH S99A (antibody, name in Kabat numbering, V domains shown) VH: QVQLVESGGGLVQPGRSLRLSCAASGFTFSNAWMHWVRQAPGKGLEWVAQIKDKGNAYAAYYAPSVKGRFTISRDDSKNSIYLQMNSLKTEDTAVYYCHYVHYAAASTVLPAFGVDAWGQGTTVTVSS VL: DIVMTQSPLSLPVTPGEPASISCQASQELVHMNRNTYLHWYQQKPGQAPRLLIYKVSNRFPGVPDRFSGSGSGTDFTLKISRVEAEDVGVYYCAQGTSVPFTFGQGTKLEIK | 1.4 fold
H183/L072 VH T28A (antibody, name in Kabat numbering, V domains shown) VH: QVQLVESGGGLVQPGRSLRLSCAASGFAFSNAWMHWVRQAPGKGLEWVAQIKDKGNAYAAYYAPSVKGRFTISRDDSKNSIYLQMNSLKTEDTAVYYCHYVHYASASTVLPAFGVDAWGQGTTVTVSS VL: DIVMTQSPLSLPVTPGEPASISCQASQELVHMNRNTYLHWYQQKPGQAPRLLIYKVSNRFPGVPDRFSGSGSGTDFTLKISRVEAEDVGVYYCAQGTSVPFTFGQGTKLEIK | 0.4 fold
H183/L072 VH S99L (antibody, name in Kabat numbering, V domains shown) VH: QVQLVESGGGLVQPGRSLRLSCAASGFTFSNAWMHWVRQAPGKGLEWVAQIKDKGNAYAAYYAPSVKGRFTISRDDSKNSIYLQMNSLKTEDTAVYYCHYVHYALASTVLPAFGVDAWGQGTTVTVSS VL: DIVMTQSPLSLPVTPGEPASISCQASQELVHMNRNTYLHWYQQKPGQAPRLLIYKVSNRFPGVPDRFSGSGSGTDFTLKISRVEAEDVGVYYCAQGTSVPFTFGQGTKLEIK | 0.3 fold
H183/L072 VH T28H (antibody, name in Kabat numbering, V domains shown) VH: QVQLVESGGGLVQPGRSLRLSCAASGFHFSNAWMHWVRQAPGKGLEWVAQIKDKGNAYAAYYAPSVKGRFTISRDDSKNSIYLQMNSLKTEDTAVYYCHYVHYASASTVLPAFGVDAWGQGTTVTVSS VL: DIVMTQSPLSLPVTPGEPASISCQASQELVHMNRNTYLHWYQQKPGQAPRLLIYKVSNRFPGVPDRFSGSGSGTDFTLKISRVEAEDVGVYYCAQGTSVPFTFGQGTKLEIK | 1.1 fold
H183/L072 VH T28E (antibody, name in Kabat numbering, V domains shown) VH: QVQLVESGGGLVQPGRSLRLSCAASGFEFSNAWMHWVRQAPGKGLEWVAQIKDKGNAYAAYYAPSVKGRFTISRDDSKNSIYLQMNSLKTEDTAVYYCHYVHYASASTVLPAFGVDAWGQGTTVTVSS VL: DIVMTQSPLSLPVTPGEPASISCQASQELVHMNRNTYLHWYQQKPGQAPRLLIYKVSNRFPGVPDRFSGSGSGTDFTLKISRVEAEDVGVYYCAQGTSVPFTFGQGTKLEIK | 0.3 fold
H183/L072 VH S100aL (antibody, name in Kabat numbering, V domains shown) VH: QVQLVESGGGLVQPGRSLRLSCAASGFTFSNAWMHWVRQAPGKGLEWVAQIKDKGNAYAAYYAPSVKGRFTISRDDSKNSIYLQMNSLKTEDTAVYYCHYVHYASALTVLPAFGVDAWGQGTTVTVSS VL: DIVMTQSPLSLPVTPGEPASISCQASQELVHMNRNTYLHWYQQKPGQAPRLLIYKVSNRFPGVPDRFSGSGSGTDFTLKISRVEAEDVGVYYCAQGTSVPFTFGQGTKLEIK | 0 fold
H183/L072 VH T28G (antibody, name in Kabat numbering, V domains shown) VH: QVQLVESGGGLVQPGRSLRLSCAASGFGFSNAWMHWVRQAPGKGLEWVAQIKDKGNAYAAYYAPSVKGRFTISRDDSKNSIYLQMNSLKTEDTAVYYCHYVHYASASTVLPAFGVDAWGQGTTVTVSS VL: DIVMTQSPLSLPVTPGEPASISCQASQELVHMNRNTYLHWYQQKPGQAPRLLIYKVSNRFPGVPDRFSGSGSGTDFTLKISRVEAEDVGVYYCAQGTSVPFTFGQGTKLEIK | 0.3 fold
H183/L072 VH S62P (antibody, name in Kabat numbering, V domains shown) VH: QVQLVESGGGLVQPGRSLRLSCAASGFTFSNAWMHWVRQAPGKGLEWVAQIKDKGNAYAAYYAPPVKGRFTISRDDSKNSIYLQMNSLKTEDTAVYYCHYVHYASASTVLPAFGVDAWGQGTTVTVSS VL: DIVMTQSPLSLPVTPGEPASISCQASQELVHMNRNTYLHWYQQKPGQAPRLLIYKVSNRFPGVPDRFSGSGSGTDFTLKISRVEAEDVGVYYCAQGTSVPFTFGQGTKLEIK | 0.7 fold
H183/L072 VH S100aA (antibody, name in Kabat numbering, V domains shown) VH: QVQLVESGGGLVQPGRSLRLSCAASGFTFSNAWMHWVRQAPGKGLEWVAQIKDKGNAYAAYYAPSVKGRFTISRDDSKNSIYLQMNSLKTEDTAVYYCHYVHYASAATVLPAFGVDAWGQGTTVTVSS VL: DIVMTQSPLSLPVTPGEPASISCQASQELVHMNRNTYLHWYQQKPGQAPRLLIYKVSNRFPGVPDRFSGSGSGTDFTLKISRVEAEDVGVYYCAQGTSVPFTFGQGTKLEIK | 0 fold
H183/L072 VH S99I (antibody, name in Kabat numbering, V domains shown) VH: QVQLVESGGGLVQPGRSLRLSCAASGFTFSNAWMHWVRQAPGKGLEWVAQIKDKGNAYAAYYAPSVKGRFTISRDDSKNSIYLQMNSLKTEDTAVYYCHYVHYAIASTVLPAFGVDAWGQGTTVTVSS VL: DIVMTQSPLSLPVTPGEPASISCQASQELVHMNRNTYLHWYQQKPGQAPRLLIYKVSNRFPGVPDRFSGSGSGTDFTLKISRVEAEDVGVYYCAQGTSVPFTFGQGTKLEIK | 0 fold
H183/L072 VH S100aM (antibody, name in Kabat numbering, V domains shown) VH: QVQLVESGGGLVQPGRSLRLSCAASGFTFSNAWMHWVRQAPGKGLEWVAQIKDKGNAYAAYYAPSVKGRFTISRDDSKNSIYLQMNSLKTEDTAVYYCHYVHYASAMTVLPAFGVDAWGQGTTVTVSS VL: DIVMTQSPLSLPVTPGEPASISCQASQELVHMNRNTYLHWYQQKPGQAPRLLIYKVSNRFPGVPDRFSGSGSGTDFTLKISRVEAEDVGVYYCAQGTSVPFTFGQGTKLEIK | 0 fold
H183/L072 VH S100aI (antibody, name in Kabat numbering, V domains shown) VH: QVQLVESGGGLVQPGRSLRLSCAASGFTFSNAWMHWVRQAPGKGLEWVAQIKDKGNAYAAYYAPSVKGRFTISRDDSKNSIYLQMNSLKTEDTAVYYCHYVHYASAITVLPAFGVDAWGQGTTVTVSS VL: DIVMTQSPLSLPVTPGEPASISCQASQELVHMNRNTYLHWYQQKPGQAPRLLIYKVSNRFPGVPDRFSGSGSGTDFTLKISRVEAEDVGVYYCAQGTSVPFTFGQGTKLEIK | 0 fold
